Reference: article PMC6377682 (2019)
Values belong to the binder of their own block, whether it stands above or below them.

B2: human PP1β^6-327 (enzyme)
chain: LNVDSLITRLLEVRGCRPGKIVQMTEAEVRGLCIKSREIFLSQPILLELEAPLKICGDIHGQYTDLLRLFEYGGFPPEANYLFLGDYVDRGKQSLETICLLLAYKIKYPENFFLLRGNHECASINRIYGFYDECKRRFNIKLWKTFTDCFNCLPIAAIVDEKIFCCHGGLSPDLQSMEQIRRIMRPTDVPDTGLLCDLLWSDPDKDVQGWGENDRGVSFTFGADVVSKFLNRHDLDLICRAHQVVEDGYEFFAKRQLVTLFSAPNYCGEFDNAGGMMSVDETLMCSFQILKPSEKKAKYQYGGLNSGRPVTPPRTANPPKKR
B7: human ASPP2^920-1120 (domain or fragment)
chain: MRVKFNPLALLLDSSLEGEFDLVQRIIYEVDDPSLPNDEGITALHNAVCAGHTEIVKFLVQFGVNVNAADSDGWTPLHCAASCNNVQVCKFLVESGAAVFAMTYSDMQTAADKCEEMEEGYTQCSQFLYGVQEKMGIMNKGVIYALWDYEPQNDDELPMKEGDCMTIIHREDEDEIEWWWARLNDKEGYVPRNLLGLYPRI

Legend:
human ASPP2^920-1120 = target: B7; test: ITC
ASPP2^E1090K/D1093S = target: T1, ASPP2^E1090K/D1093S (human, UniProt Q13625 920-1120, E1090K | D1093S); test: BLI
T1 sequence: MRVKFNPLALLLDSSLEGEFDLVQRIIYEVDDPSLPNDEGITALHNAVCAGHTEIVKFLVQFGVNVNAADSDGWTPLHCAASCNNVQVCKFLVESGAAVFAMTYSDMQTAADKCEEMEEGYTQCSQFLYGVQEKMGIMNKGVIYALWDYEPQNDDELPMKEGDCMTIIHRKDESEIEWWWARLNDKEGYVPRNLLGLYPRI

ASPP2^D1093S = target: T2, ASPP2^D1093S (human, UniProt Q13625 920-1120, D1093S); test: BLI
T2 sequence: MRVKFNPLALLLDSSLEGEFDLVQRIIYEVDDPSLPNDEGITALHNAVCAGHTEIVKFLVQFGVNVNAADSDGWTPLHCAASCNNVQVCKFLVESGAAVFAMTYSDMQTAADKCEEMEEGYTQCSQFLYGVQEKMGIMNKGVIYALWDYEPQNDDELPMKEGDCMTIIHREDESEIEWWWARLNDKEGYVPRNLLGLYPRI

ASPP1^K1052E/S1055D = target: T3, ASPP1^K1052E/S1055D (human, UniProt Q96KQ4 882-1090, K1052E | S1055D); test: BLI
T3 sequence: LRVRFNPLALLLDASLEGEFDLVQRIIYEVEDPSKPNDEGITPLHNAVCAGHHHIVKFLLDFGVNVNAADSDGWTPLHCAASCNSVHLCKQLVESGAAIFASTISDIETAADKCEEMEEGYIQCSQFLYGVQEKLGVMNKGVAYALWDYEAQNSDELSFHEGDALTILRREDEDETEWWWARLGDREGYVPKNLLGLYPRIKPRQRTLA

ASPP2^D1091G/E1092P = target: T4, ASPP2^D1091G/E1092P (human, UniProt Q13625 920-1120, D1091G | E1092P); test: ITC
T4 sequence: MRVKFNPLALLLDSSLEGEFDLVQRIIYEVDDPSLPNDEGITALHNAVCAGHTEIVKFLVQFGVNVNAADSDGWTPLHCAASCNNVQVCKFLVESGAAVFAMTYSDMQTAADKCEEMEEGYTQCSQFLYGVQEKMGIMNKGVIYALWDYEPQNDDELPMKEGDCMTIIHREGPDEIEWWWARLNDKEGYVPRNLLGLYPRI

human PP1γ1^7-323 = human PP1γ1^7-323 (human, UniProt P36873 7-323); test: BLI
human PP1α^7-330 = human PP1α^7-330 (human, UniProt P62136 7-330); test: BLI
human PP1β^6-327 = target: B2; test: BLI

Binder: B2
Kd (ASPP2^E1090K/D1093S): 178 nM
Kd (ASPP2^D1093S): 136 nM
Kd (ASPP1^K1052E/S1055D): 84.4 nM

B3: PP1β^297-327 chimera with the PP1α C-terminal residues NSAKAKK (peptide)
chain: PSEKKAKYQYGGLNSGRPVTPPRNSAKAKK
modifications: synthetic peptide, termini not stated; the end of the PPII motif (RPVTPPR) is taken as Arg319 by alignment with PP1α 317-323
Kd (human ASPP2^920-1120): 200 nM

Binder: KNKGKYGQFSGLNPGGRPITPPRNSAKAKK [PP1α^301-330 C-tail peptide]
Kd (ASPP2^D1091G/E1092P): 172 nM

Binder: PAEKKKPNATRPVTPPRGMITKQAKK [PP1γ1^298-323 C-tail peptide]
Kd (human ASPP2^920-1120): 690 nM

Binder: KNKGKYGQFSGLNPGGRPITPPRNSAKAAK [PP1α^301-330 K329A peptide]
Kd (human ASPP2^920-1120): 342 nM

Binder: KNKGKYGQFSGLNPGGRPITPPRNSAKAKA [PP1α^301-330 K330A peptide]
Kd (human ASPP2^920-1120): 326 nM

Binder: KNKGKYGQFSGLNPGGRPITPPRNSAAAKK [PP1α^301-330 K327A peptide]
Kd (human ASPP2^920-1120): 520 nM

Binder: PSEKKAKYQYGGLNSGRPVTPPRTANPPKKR [PP1β^297-327 C-tail peptide]
Kd (human ASPP2^920-1120): 965 nM

Binder: B7
Kd (human PP1γ1^7-323): 195 nM
Kd (human PP1β^6-327): 177 nM

The remaining lines, values ahead:

Kd (human ASPP2^920-1120): 326 nM
B1: PP1γ2^297-324 chimera with the PP1α C-terminal residues NSAKAKK (peptide)
chain: KPAEKKKPNATRPVTPPRNSAKAKK
modifications: synthetic peptide, termini not stated; γ2 is identical to γ1 through the PPII motif (end taken as Arg314 by alignment), so the canonical entry is used

Kd (human ASPP2^920-1120): 2150 nM
Binder: KPAEKKKPNATRPVTPPRVASGLNPSIQ [PP1γ2^297-324 C-tail peptide]

Kd (human PP1γ1^7-323): 4.9 nM
Kd (human PP1α^7-330): 2.4 nM
B4: human iASPP^621-828 (domain or fragment)
chain: RRARLNPLVLLLDAALTGELEVVQQAVKEMNDPSQPNEEGITALHNAICGANYSIVDFLITAGANVNSPDSHGWTPLHCAASCNDTVICMALVQHGAAIFATTLSDGATAFEKCDPYREGYADCATYLADVEQSMGLMNSGAVYALWDYSAEFGDELSFREGESVTVLRRDGPEETDWWWAALHGQEGYVPRNYFGLFPRVKPQRSKV

Kd (human PP1γ1^7-323): 60.6 nM
Kd (human PP1α^7-330): 59 nM
Kd (human PP1β^6-327): 66.5 nM
B5: human ASPP1^882-1090 (domain or fragment)
chain: LRVRFNPLALLLDASLEGEFDLVQRIIYEVEDPSKPNDEGITPLHNAVCAGHHHIVKFLLDFGVNVNAADSDGWTPLHCAASCNSVHLCKQLVESGAAIFASTISDIETAADKCEEMEEGYIQCSQFLYGVQEKLGVMNKGVAYALWDYEAQNSDELSFHEGDALTILRRKDESETEWWWARLGDREGYVPKNLLGLYPRIKPRQRTLA

Kd (human ASPP2^920-1120): 326 nM
B6: PP1γ1^298-323 chimera with the PP1α C-terminal residues NSAKAKK (peptide)
chain: PAEKKKPNATRPVTPPRNSAKAKK
modifications: synthetic peptide, termini not stated; the end of the PPII motif (RPVTPPR) is taken as Arg314 by alignment with PP1α 317-323
